Source: the supplement of paper PMC10126150
± gives the standard deviation of the averaged measurements.

Tested on: ATP
Assay: switch fluorescence ratio, 500 uM ATP over buffer (Cy3 cluster intensity, sum of 5 cycles each) (fold (ratio)); higher = stronger signal-on switching upon ATP binding; sequences stand for … in TCGTCGGCAGCGTCAGATGTGTATAAGAGACAGTTTTTTTTTTTTTTTTTTTTTTTTT…TC
Conditions: aptamer strand: ATP DNA aptamer (quencher-CACCTGGGGGAGTATTGCGGAGGAAGG + anchor), 100 nM annealed; ATP concentration: 500 uM
Outline: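 Per cluster, summed Cy3 intensity from the target cycles was divided by that from the buffer cycles to give the fluorescence ratio, then averaged per switch-domain sequence. Clusters outside 100-1000 RFU were excluded. The Cy3-labelled switching-strand clusters, on a modified Illumina MiSeq flow-cell, were annealed to 100 nM quencher-labelled ATP aptamer and imaged in selection buffer, then after 15 min with 500 uM ATP at 22 °C, for five cycles with NaOH stripping and re-annealing between them.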
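Further: ATP exposure 15 min at 22 °C before imaging.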

Sequence	switch fluorescence ratio
TAAGATATTT	0.9715 ± 0.0094
TAAGATTCGT	1 ± 0.031
TAAGATTTTC	0.973 ± 0.046
TAAGCAATGT	2.69 ± 1.1
TAAGCAGTGG	1.02 ± 0.022
TAAGCATTTC	1.34 ± 0.11
TAAGCCTGTT	1 ± 0.021
TAAGCGGCGC	0.989 ± 0.084
TAAGCGGGAC	2.88 ± 2
TAAGCGGGGC	1.0163 ± 0.00063
TAAGCTCTCG	0.9915 ± 0.0027
TAAGCTTGTA	1.01 ± 0.022
TAAGGAAAAT	0.998 ± 0.02
TAAGGACATT	1.03 ± 0.015
TAAGGACGGA	1.01 ± 0.071
TAAGGAGACA	1.01 ± 0.045
TAAGGAGGAG	1 ± 0.013
TAAGGAGGTC	0.99 ± 0.031
TAAGGAGTAG	0.991 ± 0.027
TAAGGATGGG	0.961 ± 0.032
TAAGGATGTA	1 ± 0.033
TAAGGCTAGT	0.969 ± 0.01
TAAGGCTTCG	0.96 ± 0.039
TAAGGGAAGC	1.04 ± 0.04
TAAGGGAGGT	0.996 ± 0.044
TAAGGGAGTA	1.004 ± 0.0065

Sequence	switch fluorescence ratio
TAAGGGCAAG	1.01 ± 0.013
TAAGGGGAAC	1.01 ± 0.03
TAAGGGGCAT	1.04 ± 0.093
TAAGGGGCTT	0.992 ± 0.021
TAAGGGGGCA	1.01 ± 0.052
TAAGGGGGTT	1.01 ± 0.036
TAAGGGGTCG	1.03 ± 0.046
TAAGGGGTGC	1.06 ± 0.014
TAAGGGTATG	0.965 ± 0.066
TAAGGGTGCT	1.039 ± 0.0037
TAAGGGTGGG	1 ± 0.043
TAAGGGTGGT	1.01 ± 0.027
TAAGGGTTAA	0.994 ± 0.012
TAAGGGTTG	0.985 ± 0.058
TAAGGGTTTG	0.977 ± 0.036
TAAGGTAAGT	0.987 ± 0.021
TAAGGTATGT	1.03 ± 0.026
TAAGGTGCTC	1.1 ± 0.01
TAAGGTGTTT	1.08 ± 0.076
TAAGGTTCTT	1.01 ± 0.011
TAAGGTTGCA	0.983 ± 0.032
TAAGTAATTT	1.01 ± 0.042
TAAGTACTTT	0.977 ± 0.025
TAAGTAGTAT	0.987 ± 0.017
TAAGTATTG	1.01 ± 0.017
TAAGTCCTTT	0.9828 ± 0.0041

Sequence	switch fluorescence ratio
TAAGTGCGGG	0.974 ± 0.0034
TAAGTGGGAA	1.01 ± 0.035
TAAGTGGTGC	1.05 ± 0.031
TAAGTGGTT	0.994 ± 0.011
TAAGTTAGAG	0.97 ± 0.024
TAAGTTATGT	1.01 ± 0.015
TAAGTTGAGC	0.965 ± 0.057
TAAGTTGGGG	0.995 ± 0.02
TAAGTTGGTT	1.06 ± 0.014
TAAGTTGTAT	1 ± 0.035
TAAGTTTGCC	1.01 ± 0.04
TAAGTTTGGG	0.968 ± 0.04
TAAGTTTGGT	0.985 ± 0.021
TAAGTTTTGG	0.974 ± 0.017
TAATAAAGAT	0.969 ± 0.054
TAATAACTCT	1 ± 0.061
TAATAATGGA	1.01 ± 0.035
TAATAATTCG	1.01 ± 0.012
TAATACCGTA	1.06 ± 0.084
TAATACTGTT	0.888 ± 0.031
TAATACTTTG	1.04 ± 0.024
TAATAGAGCT	0.995 ± 0.03
TAATCAGAGC	1.02 ± 0.039
TAATCAGGGG	1.07 ± 0.16
TAATCCCGGG	1.3 ± 0.4
TAATCCTAGT	0.997 ± 0.036

Sequence	switch fluorescence ratio
TAATCGCATA	2.05 ± 1.2
TAATCGGCCT	1.04 ± 0.05
TAATCGGGGA	0.984 ± 0.029
TAATCGTGTT	0.983 ± 0.014
TAATCTGCTG	1.01 ± 0.02
TAATCTGGTA	0.986 ± 0.017
TAATCTTAGA	0.99489 ± 5.2e-05
TAATGACCTT	1.16 ± 0.18
TAATGCAATA	1.67 ± 0.054
TAATGCGGGA	1 ± 0.027
TAATGCTGTG	0.984 ± 0.036
TAATGCTTGG	1.01 ± 0.031
TAATGGAGGT	0.979 ± 0.038
TAATGGAGTA	1.01 ± 0.052
TAATGGATCG	1 ± 0.044
TAATGGCCTT	0.9862 ± 0.0021
TAATGGGATA	1.02 ± 0.055
TAATGGGATG	0.974 ± 0.015
TAATGGGGAT	0.989 ± 0.022
TAATGGGTGC	1.06 ± 0.038
TAATGGTCAC	1.01 ± 0.011
TAATGTTACT	1.04 ± 0.039
TAATGTTATG	1.03 ± 0.017
TAATGTTTGT	0.986 ± 0.048
TAATTACGGA	1.06 ± 0.026
TAATTACTAT	1.12 ± 0.17

Sequence	switch fluorescence ratio
TAATTATATT	0.988 ± 0.023
TAATTATCCG	1.05 ± 0.044
TAATTCGCGA	1.15 ± 0.034
TAATTCGGGG	0.97 ± 0.057
TAATTCTGGT	0.965 ± 0.025
TAATTCTTTT	0.986 ± 0.029
TAATTGGGAG	1.01 ± 0.02
TAATTGGGGG	1 ± 0.03
TAATTGGTTG	0.982 ± 0.012
TAATTTATCC	1.022 ± 0.0095
TAATTTGGA	0.9652 ± 0.004
TAATTTGGGA	0.997 ± 0.013
TAATTTGGGT	1 ± 0.015
TAATTTGTTG	0.988 ± 0.028
TAATTTTAGT	1.0092 ± 0.00027
TAATTTTATG	0.998 ± 0.025
TAATTTTTAG	1.01 ± 0.025
TAATTTTTGT	0.993 ± 0.026
TACAAAGATG	1.025 ± 0.0056
TACAAAGCAG	1.11 ± 0.037
TACAAAGGCG	1.06 ± 0.018
TACAAATTGT	1.03 ± 0.025
TACAAGAATA	0.986 ± 0.03
TACAATCGGA	0.9791 ± 0.0067
TACAATGCTT	1.02 ± 0.017
TACACCTTTC	2.3 ± 0.073

Sequence	switch fluorescence ratio
TACACTGGCG	1.05 ± 0.057
TACAGATGT	1.028 ± 0.01
TACAGCACTG	1.29 ± 0.15
TACAGCTAAA	1.03 ± 0.032
TACAGCTTAA	1.022 ± 0.0019
TACAGGAGGG	1.01 ± 0.021
TACAGGCTGA	0.9858 ± 0.0046
TACAGGGGAA	1.09 ± 0.056
TACAGGGTCG	1.13 ± 0.049
TACAGGGTTT	1.021 ± 0.005
TACAGGTGCA	1.81 ± 0.022
TACAGTGTTT	0.975 ± 0.025
TACAGTTACC	1.31 ± 0.11
TACATATTTT	1.05 ± 0.043
TACATCTGAA	0.993 ± 0.023
TACCAAAAAA	1.2 ± 0.18
TACCAACTTA	1.1 ± 0.033
TACCATATTT	1.04 ± 0.021
TACCATGCGG	1.023 ± 0.01
TACCATTTGT	1 ± 0.044
TACCCAGGGA	1.64 ± 0.13
TACCCGACTT	1.13 ± 0.009
TACCCGCTGT	1.56 ± 0.39
